From US20130236459A1 (MERRIMACK PHARMACEUTICALS, published 2013)
Like-named read-outs stand apart in the source and are kept apart here. Each block holds one binder with its values, some of them ahead of it.

Key:
[1] = biological target: T1, IGF-1R (receptor for insulin-like growth factor 1), endogenous on human tumor cell lines (human, UniProt P08069 31-1367); assay: summary sentence of Example 3 (FACS on cells)
T1 construct: whole, on cells; Target of the anti-IGF-1R arm in cell assays
Procedure: (§1) 1×10⁵ MCF7 cells or 1×10⁵ ADRr cells are incubated at room temperature for 2 hours with each of ELI-7, ILE-10 and ILE-12, two anti-ErB3 antibodies and one anti-IGF-1R antibody at 2 uM, followed by 12 subsequent 3-fold dilutions. Then using goat anti-HSA-Alexa647 conjugated antibody as the detection antibody, cells are incubated on ice for 40 minutes. Cell binding dissociation constants (measures of binding affinities) of the antibodies on MCF7 and ADRr cells are assessed by FACS and apparent dissociation constants are determined for each protein. The following results were obtained (see also FIGS. 14A and 14B): […]

[2] = biological target: T2, ErbB3 (HER3), endogenous on human tumor cell lines (human, UniProt P21860 20-1342); assay: summary sentence of Example 3 (FACS on cells)
T2 construct: Target of the anti-ErbB3 arm in cell assays
T2 sequence (P21860 20-1342 limits assumed): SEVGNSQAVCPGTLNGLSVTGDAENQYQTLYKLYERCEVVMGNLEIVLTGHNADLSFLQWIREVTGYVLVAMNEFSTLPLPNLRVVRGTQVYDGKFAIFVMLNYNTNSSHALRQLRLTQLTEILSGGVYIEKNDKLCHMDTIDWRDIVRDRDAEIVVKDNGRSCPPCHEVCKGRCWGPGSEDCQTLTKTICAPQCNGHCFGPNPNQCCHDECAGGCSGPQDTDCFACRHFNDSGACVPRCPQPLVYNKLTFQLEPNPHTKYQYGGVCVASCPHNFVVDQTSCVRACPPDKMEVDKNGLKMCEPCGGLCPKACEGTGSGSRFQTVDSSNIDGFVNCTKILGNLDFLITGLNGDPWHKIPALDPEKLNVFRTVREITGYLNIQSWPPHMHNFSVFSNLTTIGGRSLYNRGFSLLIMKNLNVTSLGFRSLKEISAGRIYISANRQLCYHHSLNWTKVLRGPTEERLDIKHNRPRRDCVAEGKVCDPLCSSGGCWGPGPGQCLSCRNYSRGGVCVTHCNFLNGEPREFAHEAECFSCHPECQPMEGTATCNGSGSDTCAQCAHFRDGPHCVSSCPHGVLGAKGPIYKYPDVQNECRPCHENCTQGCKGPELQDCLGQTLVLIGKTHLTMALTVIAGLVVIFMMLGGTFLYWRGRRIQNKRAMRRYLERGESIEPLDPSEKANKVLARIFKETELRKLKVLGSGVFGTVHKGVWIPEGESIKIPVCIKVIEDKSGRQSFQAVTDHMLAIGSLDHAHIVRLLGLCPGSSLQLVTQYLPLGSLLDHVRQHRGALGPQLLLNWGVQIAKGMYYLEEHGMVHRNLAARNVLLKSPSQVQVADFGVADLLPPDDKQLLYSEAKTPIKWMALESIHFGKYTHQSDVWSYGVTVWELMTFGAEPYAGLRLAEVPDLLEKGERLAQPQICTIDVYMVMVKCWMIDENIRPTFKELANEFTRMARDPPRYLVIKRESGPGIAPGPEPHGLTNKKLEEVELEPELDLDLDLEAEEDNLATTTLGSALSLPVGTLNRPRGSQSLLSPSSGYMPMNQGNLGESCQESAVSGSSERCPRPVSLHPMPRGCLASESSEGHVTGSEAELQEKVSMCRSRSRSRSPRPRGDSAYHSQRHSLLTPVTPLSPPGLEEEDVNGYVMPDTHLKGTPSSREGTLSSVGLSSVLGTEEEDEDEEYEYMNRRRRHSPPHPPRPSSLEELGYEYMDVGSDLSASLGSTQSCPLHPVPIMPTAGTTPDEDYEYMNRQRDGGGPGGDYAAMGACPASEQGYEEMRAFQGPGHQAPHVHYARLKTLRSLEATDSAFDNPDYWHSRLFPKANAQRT
Procedure: as §1

[3] = biological target: T1, IGF-1R (receptor for insulin-like …); assay: cell-based or functional assay
[4] = biological target: T2, ErbB3 (HER3), endogenous on human tumor …; assay: cell-based or functional assay
[5] = biological target: T1, IGF-1R (receptor for insulin-like …); assay: cell-based or functional assay; remark: listed apart in the source
[6] = biological target: T2, ErbB3 (HER3), endogenous on human tumor …; assay: cell-based or functional assay; remark: listed apart in the source
mouse IGF-1R-His = biological target: T3, mouse IGF-1R-His (mouse, UniProt Q60751 31-936, limits assumed); assay: ELISA, species specific IGF-1R-His coated plate
T3 construct: not shown: His tag, not further described
Procedure: (§2) 96-well Reacti-bind® plates (Pierce, Fisher cat. No. PI-I5041) are coated with 50 ul of species specific ErbB3-His or IGF-1R-His (R&D Systems, cat. No. 348-RB and 305-GR, respectively) at 2 ug/ml in PBS and incubated overnight at 4° C. The next day plates are washed with PBS+0.05% Tween-20 (PBS-T) and blocked for 1 hr. at room temperature with 100 ul of Protein-Free Blocking Buffer (Pierce). Plates are washed with PBS-T and 50 ul of each PBA is added in duplicate. Concentrations start at 500 nM (in PBS-T) and included ten additional two-fold dilutions and one blank (PBS-T only). Plates are incubated at room temperature for two hours and then washed with PBS-T. 50 ul of anti-Fc-HRP (Jackson Labs) is added at 1:40,000 in PBS-T, and plates are incubated in the dark for 1 hr. at room temperature. Plates are again washed with PBS-T and 100 ul of TMB substrate (Thermo Scientific, TMB and peroxide solution mixed 1:1) is added. The plates are incubated for 5-15 minutes at room temperature until a blue color develops, and the reaction is stopped with 100 ul of STOP solution (Cell Signaling Technology). The absorbance is read at 450 nm on a PerkinElmer Envision plate reader, and binding curves are generated using GraphPad Prism.

[7] = biological target: T1, IGF-1R (receptor for insulin-like …); assay: cell-based or functional assay; remark: listed apart in the source
[8] = biological target: T1, IGF-1R (receptor for insulin-like …); assay: cell-based or functional assay; remark: listed apart in the source
[9] = biological target: T2, ErbB3 (HER3), endogenous on human tumor …; assay: cell-based or functional assay; remark: listed apart in the source
rat ErbB3-His = biological target: T4, rat ErbB3-His (rat, UniProt Q62799 20-641, limits assumed); assay: ELISA, species specific ErbB3-His coated plate
T4 construct: not shown: His tag, not further described for this species form
T4 sequence (Q62799 20-641 limits assumed): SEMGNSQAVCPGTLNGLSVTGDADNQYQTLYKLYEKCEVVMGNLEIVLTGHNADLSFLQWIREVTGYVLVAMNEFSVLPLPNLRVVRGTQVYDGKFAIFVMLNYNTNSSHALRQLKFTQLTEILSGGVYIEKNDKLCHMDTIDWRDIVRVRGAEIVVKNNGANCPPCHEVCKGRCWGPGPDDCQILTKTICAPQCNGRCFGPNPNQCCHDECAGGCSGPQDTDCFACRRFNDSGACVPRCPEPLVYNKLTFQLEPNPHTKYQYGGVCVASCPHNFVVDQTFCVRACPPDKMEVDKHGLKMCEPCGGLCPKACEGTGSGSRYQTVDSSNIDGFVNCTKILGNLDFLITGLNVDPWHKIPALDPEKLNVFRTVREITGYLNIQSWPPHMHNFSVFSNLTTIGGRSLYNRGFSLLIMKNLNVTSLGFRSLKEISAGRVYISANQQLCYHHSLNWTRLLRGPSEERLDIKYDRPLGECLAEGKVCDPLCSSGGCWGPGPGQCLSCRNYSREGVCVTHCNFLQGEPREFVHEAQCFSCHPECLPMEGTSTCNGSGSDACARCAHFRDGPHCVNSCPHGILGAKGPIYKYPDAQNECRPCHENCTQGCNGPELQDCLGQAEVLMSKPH
Procedure: as §2

mouse ErbB3-His = biological target: T5, mouse ErbB3-His (mouse, UniProt Q61526 20-641, limits assumed); assay: ELISA, species specific ErbB3-His coated plate
T5 construct: not shown: His tag, not further described for this species form
T5 sequence (Q61526 20-641 limits assumed): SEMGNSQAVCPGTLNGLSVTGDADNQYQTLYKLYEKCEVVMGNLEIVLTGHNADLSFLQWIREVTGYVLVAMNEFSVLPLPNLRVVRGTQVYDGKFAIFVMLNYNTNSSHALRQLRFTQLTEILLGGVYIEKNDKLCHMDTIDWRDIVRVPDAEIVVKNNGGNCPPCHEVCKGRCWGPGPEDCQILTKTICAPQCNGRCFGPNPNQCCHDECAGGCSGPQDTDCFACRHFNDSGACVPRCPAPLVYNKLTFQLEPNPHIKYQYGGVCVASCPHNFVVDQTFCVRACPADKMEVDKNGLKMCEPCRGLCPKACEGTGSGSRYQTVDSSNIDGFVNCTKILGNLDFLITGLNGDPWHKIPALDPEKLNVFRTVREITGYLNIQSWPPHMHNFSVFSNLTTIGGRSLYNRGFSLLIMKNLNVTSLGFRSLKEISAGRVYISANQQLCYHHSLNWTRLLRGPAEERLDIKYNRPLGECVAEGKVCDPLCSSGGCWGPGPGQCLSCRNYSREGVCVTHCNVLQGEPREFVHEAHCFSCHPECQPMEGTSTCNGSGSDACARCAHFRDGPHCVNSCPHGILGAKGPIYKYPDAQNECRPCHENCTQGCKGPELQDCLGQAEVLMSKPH
Procedure: as §2

[10] = biological target: T2, ErbB3 (HER3), endogenous on human tumor …; assay: cell-based or functional assay; remark: listed apart in the source
[11] = biological target: T2, ErbB3 (HER3), endogenous on human tumor …; assay: cell-based or functional assay; remark: listed apart in the source
[12] = biological target: T2, ErbB3 (HER3), endogenous on human tumor …; assay: cell-based or functional assay; remark: listed apart in the source
[13] = biological target: T1, IGF-1R (receptor for insulin-like …); assay: cell-based or functional assay; remark: listed apart in the source
[14] = biological target: T2, ErbB3 (HER3), endogenous on human tumor …; assay: cell-based or functional assay; remark: listed apart in the source

T1 sequence (P08069 31-1367): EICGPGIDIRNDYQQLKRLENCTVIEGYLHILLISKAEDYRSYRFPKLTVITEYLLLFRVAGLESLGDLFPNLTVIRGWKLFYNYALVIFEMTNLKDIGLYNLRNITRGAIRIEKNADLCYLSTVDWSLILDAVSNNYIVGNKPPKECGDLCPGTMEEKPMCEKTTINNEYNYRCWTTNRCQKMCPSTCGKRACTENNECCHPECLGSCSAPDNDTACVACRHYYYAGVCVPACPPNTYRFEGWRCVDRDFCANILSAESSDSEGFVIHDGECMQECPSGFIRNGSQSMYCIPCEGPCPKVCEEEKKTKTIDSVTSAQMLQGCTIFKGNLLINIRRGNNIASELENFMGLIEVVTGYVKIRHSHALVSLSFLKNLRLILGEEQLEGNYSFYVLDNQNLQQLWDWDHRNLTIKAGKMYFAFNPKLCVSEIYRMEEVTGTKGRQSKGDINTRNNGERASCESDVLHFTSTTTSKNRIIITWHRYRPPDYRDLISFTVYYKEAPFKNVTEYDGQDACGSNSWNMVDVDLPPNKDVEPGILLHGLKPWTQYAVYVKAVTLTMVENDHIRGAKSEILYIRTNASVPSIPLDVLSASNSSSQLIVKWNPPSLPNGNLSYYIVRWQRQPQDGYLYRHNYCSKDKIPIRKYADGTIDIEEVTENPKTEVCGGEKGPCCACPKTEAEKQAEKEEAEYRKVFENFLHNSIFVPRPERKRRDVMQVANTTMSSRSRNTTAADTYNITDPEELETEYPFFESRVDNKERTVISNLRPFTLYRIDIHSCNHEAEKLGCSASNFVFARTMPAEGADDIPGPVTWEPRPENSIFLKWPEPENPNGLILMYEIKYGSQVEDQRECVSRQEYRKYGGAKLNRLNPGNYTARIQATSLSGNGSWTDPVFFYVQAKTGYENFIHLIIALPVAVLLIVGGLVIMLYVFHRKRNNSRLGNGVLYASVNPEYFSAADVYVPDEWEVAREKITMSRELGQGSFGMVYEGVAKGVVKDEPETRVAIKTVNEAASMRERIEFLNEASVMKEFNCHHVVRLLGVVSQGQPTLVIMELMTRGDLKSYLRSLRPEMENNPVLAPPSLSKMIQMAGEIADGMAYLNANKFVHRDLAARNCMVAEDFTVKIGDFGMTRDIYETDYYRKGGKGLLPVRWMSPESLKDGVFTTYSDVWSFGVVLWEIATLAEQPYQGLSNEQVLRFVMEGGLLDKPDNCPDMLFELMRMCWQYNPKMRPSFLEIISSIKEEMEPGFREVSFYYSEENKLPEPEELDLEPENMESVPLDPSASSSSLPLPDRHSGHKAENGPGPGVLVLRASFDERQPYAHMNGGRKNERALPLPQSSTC

binding result [1]: binds | binding result [2]: binds
B1: ILE-10 (bispecific antibody, human IgG2, kappa)
heavy: EVQLLESGGGLVQPGGSLRLSCAASGFTFSVYPMHWVRQAPGKGLEWVSSISSSGGATRYADSVKGRFTISRDNSKNTLYLQMNSLRAEDTAVYYCAKDFYDILTGNAFDIWGQGTMVTVSSASTKGPSVFPLAPCSRSTSESTAALGCLVKDYFPEPVTVSWNSGALTSGVHTFPAVLQSSGLYSLSSVVTVPSSNFGTQTYTCNVDHKPSNTKVDKTVERKCCVECPPCPAPPVAGPSVFLFPPKPKDTLMISRTPEVTCVVVDVSHEDPEVQFNWYVDGVEVHNAKTKPREEQFNSTFRVVSVLTVVHQDWLNGKEYKCKVSNKGLPAPIEKTISKTKGQPREPQVYTLPPSREEMTKNQVSLTCLVKGFYPSDIAVEWESNGQPENNYKTTPPMLDSDGSFFLYSKLTVDKSRWQQGNVFSCSVMHEALHNHYTQKSLSLSPGKGGGGSGGGGSGGGGSLQEVQLLESGGGLVQPGGSLRLSCAASGFTFSAYNMRWVRQAPGKGLEWVSVIYPSGGATRYADSVKGRFTISRDNSKNTLYLQMNSLRAEDTAVYYCARGYYYYGMDVWGQGTLVTVSSASTGGGGSGGGGSGGGGSQSVLTQPPSASGTPGQRVTISCSGSDSNIGRNYIYWYQQFPGTAPKLLIYRNNQRPSGVPDRISGSKSGTSASLAISGLRSEDEAEYHCGTWDDSLSGPVFGGGTKLTVLS
light: DIQMTQSPSSFSASTGDRVTITCRASQGISSYLAWYQQKPGKAPKLLIYAASTLQSGVPSRFSGSGSGTDFTLTISSLQPEDSATYYCQQYFTFPLTFGGGTKVEIKRTVAAPSVFIFPPSDEQLKSGTASVVCLLNNFYPREAKVQWKVDNALQSGNSQESVTEQDSKDSTYSLSSTLTLSKADYEKHKVYACEVTHQGLSSPVTKSFNRGEC
notes: anti-IGF-1R/anti-ErbB3 IgG2-(scFv)2: anti-IGF-1R IgG2 (module 5-7), anti-ErbB3 scFv (module 2-3); also called 14F; 14f

binding result [1]: binds | binding result [2]: binds
B2: ILE-12 (bispecific antibody, human IgG2, kappa)
heavy: EVQLLESGGGLVQPGGSLRLSCAASGFTFSVYPMHWVRQAPGKGLEWVSSISSSGGATRYADSVKGRFTISRDNSKNTLYLQMNSLRAEDTAVYYCAKDFYDILTGNAFDIWGQGTMVTVSSASTKGPSVFPLAPCSRSTSESTAALGCLVKDYFPEPVTVSWNSGALTSGVHTFPAVLQSSGLYSLSSVVTVPSSNFGTQTYTCNVDHKPSNTKVDKTVERKCCVECPPCPAPPVAGPSVFLFPPKPKDTLMISRTPEVTCVVVDVSHEDPEVQFNWYVDGVEVHNAKTKPREEQFNSTFRVVSVLTVVHQDWLNGKEYKCKVSNKGLPAPIEKTISKTKGQPREPQVYTLPPSREEMTKNQVSLTCLVKGFYPSDIAVEWESNGQPENNYKTTPPMLDSDGSFFLYSKLTVDKSRWQQGNVFSCSVMHEALHNHYTQKSLSLSPGKGGGGSGGGGSGGGGSLQEVQLLESGGGLVQPGGSLRLSCAASGFTFSVYDMYWVRQAPGKGLEWVSYIYSSGGDTDYADSVKGRFTISRDNSKNTLYLQMNSLRAEDTATYYCARASTNSIYDAMDVWGQGTTVTVSSASTGGGGSGGGGSGGGGSDIQMTQSPSSVSASVGDRVTITCRASQDITNWLAWYQQKPGKAPTLLIYDASTLQSGVPSRFSGSGSGTDFTLTISSLQPEDFATYFCQQANGFPLTFGGGTKVEIK
light: B1 light
notes: anti-IGF-1R/anti-ErbB3 IgG2-(scFv)2: anti-IGF-1R IgG2 (module 5-7), anti-ErbB3 scFv (module 2-21)

The next lines start with the binder.

B3: M7-G1-M78 (bispecific antibody, human IgG1, lambda)
heavy: not shown
light: SSELTQDPAVSVALGQTVRITCQGDSLRSYYASWYQQKPGQAPVLVIYGKNNRPSGIPDRFSGSSSGNTASLTITGAQAEDEADYYCNSRDTPGNKWVFGGGTKVTVIGQPKAAPSVTLFPPSSEELQANKATLVCLVSDFYPGAVTVAWKADGSPVKVGVETTKPSKQSNNKYAASSYLSLTPEQWKSHRSYSCRVTHEGSTVEKTVAPAECS
notes: IgG1-(scFv)2: anti-ErbB3 Fab, anti-IGF-1R scFv; also called M7-M78; M7-78
pAKT IC50 (BxPC-3, IGF1 40 ng/ml) [3]: 3.8e-10 M | pAKT IC50 (BxPC-3, IGF1 400 ng/ml) [3]: 6.4e-10 M | pIGF1R IC50 (BxPC-3, IGF1 40 ng/ml) [3]: 1e-09 M | pIGF1R IC50 (BxPC-3, IGF1 400 ng/ml) [3]: 2.4e-09 M | pAKT IC50 (BxPC-3, HRG 20 ng/ml) [4]: 7.12e-11 M | pAKT IC50 (BxPC-3, HRG 200 ng/ml) [4]: 6.46e-11 M | pErbB3 IC50 (BxPC-3, HRG 20 ng/ml) [4]: 6.16e-11 M | pErbB3 IC50 (BxPC-3, HRG 200 ng/ml) [4]: 6.53e-11 M | pIGF1R IC50 (BxPC-3) [5]: 1.3e-09 M (inferred) | pErbB3 IC50 (BxPC-3) [6]: 2.6e-11 M (inferred) | binding result (mouse IGF-1R-His): binds | % IGF1R Downregulation (A549, 24 h) [7]: 48% | % IGF1R Downregulation (BxPC-3, 24 h) [7]: 53% | pIGF1R % Inhibition (BxPC-3) [8]: 88% | pIGF1R IC50 (BxPC-3) [8]: 1.3e-09 M (inferred) | pErbB3 % Inhibition (BxPC-3) [9]: 111% | pErbB3 IC50 (BxPC-3) [9]: 2.6e-11 M (inferred) | binding result (rat ErbB3-His): binds | binding result (mouse ErbB3-His): binds

B4: ANTI-ErbB3 Ab# A (antibody, V domains shown)
VH: QVQLQQWGAGLLKPSETLSLTCAVYGGSFSGYYWSWIRQPPGKGLEWIGEINHSGSTNYNPSLKSRVTISVETSKNQFSLKLSSVTAADTAVYYCARDKWTWYFDLWGRGTLVTVSS
VL: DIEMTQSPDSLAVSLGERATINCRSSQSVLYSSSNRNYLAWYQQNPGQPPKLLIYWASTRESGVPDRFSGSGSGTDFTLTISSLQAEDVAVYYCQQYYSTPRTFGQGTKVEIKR
pAKT IC50 (BxPC-3, HRG 20 ng/ml) [4]: 3.06e-10 M | pAKT IC50 (BxPC-3, HRG 200 ng/ml) [4]: 3.26e-10 M | pErbB3 IC50 (BxPC-3, HRG 20 ng/ml) [4]: 2.41e-10 M | pErbB3 IC50 (BxPC-3, HRG 200 ng/ml) [4]: 1.98e-10 M | pAKT IC50 (BxPC-3) [10]: 3.9e-10 M (inferred) | pAKT IC50 (DU145) [10]: 2.8e-10 M (inferred) | pErbB3 IC50 (BxPC-3) [10]: 5.1e-11 M (inferred) | pErbB3 IC50 (DU145) [10]: 8.2e-11 M (inferred) | pAKT IC50 (BxPC-3) [11]: 5.7e-09 M (inferred) | pErbB3 IC50 (BxPC-3) [11]: 4.3e-10 M (inferred) | pAKT IC50 (BxPC-3) [6]: 3.5e-10 M (inferred) | pErbB3 IC50 (BxPC-3) [6]: 9.2e-11 M (inferred) | pAKT IC50 (BxPC-3 50% ErbB3 KD) [12]: 2.8e-10 M | pAKT IC50 (BxPC-3 50% IGF1R KD) [12]: 1.6e-09 M | pAKT IC50 (BxPC-3 Vector Control) [12]: 2.5e-09 M

B5: ELI-7 (bispecific antibody, human IgG2, lambda)
heavy: EVQLLESGGGLVQPGGSLRLSCAASGFTFSAYNMRWVRQAPGKGLEWVSVIYPSGGATRYADSVKGRFTISRDNSKNTLYLQMNSLRAEDTAVYYCARGYYYYGMDVWGQGTLVTVSSASTKGPSVFPLAPCSRSTSESTAALGCLVKDYFPEPVTVSWNSGALTSGVHTFPAVLQSSGLYSLSSVVTVPSSNFGTQTYTCNVDHKPSNTKVDKTVERKCCVECPPCPAPPVAGPSVFLFPPKPKDTLMISRTPEVTCVVVDVSHEDPEVQFNWYVDGVEVHNAKTKPREEQFNSTFRVVSVLTVVHQDWLNGKEYKCKVSNKGLPAPIEKTISKTKGQPREPQVYTLPPSREEMTKNQVSLTCLVKGFYPSDIAVEWESNGQPENNYKTTPPMLDSDGSFFLYSKLTVDKSRWQQGNVFSCSVMHEALHNHYTQKSLSLSPGKGGGGSGGGGSGGGGSLQEVQLLESGGGLVQPGGSLRLSCAASGFTFSVYPMHWVRQAPGKGLEWVSSISSSGGATRYADSVKGRFTISRDNSKNTLYLQMNSLRAEDTAVYYCAKDFYDILTGNAFDIWGQGTMVTVSSASTGGGGSGGGGSGGGGSDIQMTQSPSSFSASTGDRVTITCRASQGISSYLAWYQQKPGKAPKLLIYAASTLQSGVPSRFSGSGSGTDFTLTISSLQPEDSATYYCQQYFTFPLTFGGGTKVEIK
light: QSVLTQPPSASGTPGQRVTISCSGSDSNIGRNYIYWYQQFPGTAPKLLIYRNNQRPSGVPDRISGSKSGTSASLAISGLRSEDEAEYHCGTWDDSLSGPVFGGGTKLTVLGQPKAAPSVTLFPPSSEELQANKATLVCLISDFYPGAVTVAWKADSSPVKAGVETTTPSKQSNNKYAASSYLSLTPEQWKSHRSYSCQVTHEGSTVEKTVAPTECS
pIGF-1R IC50 (BxPC-3, HRG+IGF1) [13]: 10 nM | pErbB3 IC50 (BxPC-3, HRG+IGF1) [14]: 3.7 nM
